What is called kcat/Km is the turnover number divided by the Michaelis constant.

What all share (test): In-vitro kinetic assay with purified recombinant GCase
Assay type in all cases: biochemical
What all share (conditions): other: 30° C., citrate-phosphate buffer 150 mM, pH 5.4, 0.25% taurodeoxycholate, GCase 2.5 nM

Substrate in data set [1]: COc1cc(/N=N/c2ccc(C)cc2[N+](=O)[O-])c(C)cc1/N=N/c1ccc(N(C)CCCC(=O)NCCCO[C@@H]2O[C@H](COCc3cn(CCCNC(=O)[C@H](CCCCN(C)C)NC(=O)CCC4=[N+]5C(=Cc6c(C)cc(C)n6[B-]5(F)F)C=C4)nn3)[C@@H](O)[C@H](O)[C@H]2O)cc1
The protocol: (§1) In-vitro kinetic assay for substrate 1. Continuous assays were performed at 30° C. in citrate-phosphate buffer (150 mM; pH 5.4) containing 0.25% taurodeoxycholate. The concentrations of substrate 1 used in assays were 0.39, 0.78, 1.56, 3.13 6.25, 12.5, 25 and 50 μM. Reactions were initiated by the addition of purified recombinant GCase (2.5 nM, R&D Systems) and the reaction was monitored continuously over 1200 seconds to determine the initial rate of change of fluorescence. Standard curves were constructed using BODIPY® Fl-acid using the same buffer conditions. […] Assays were carried out in triplicate.
as §1, with “Comparative In-vitro” for “In-vitro”, “substrate 3 and 9b.” for “substrate 1.”, “of substrates 3 and 9b” for “of substrate 1”, “were 0.156, 0.313, 0.625, 1.25, 2.5, 5, 10,” for “were 0.39, 0.78, 1.56, 3.13 6.25, 12.5, 25”, “and 20” for “and 50”, “using TAMRA and BODIPY-576” for “using BODIPY® Fl-acid”

Substrate in data set [2]: COc1cc(/N=N/c2ccc([N+](=O)[O-])cc2)c(OC)cc1/N=N/c1ccc(N(C)CCCC(=O)NCCCO[C@@H]2O[C@H](COCc3cn(CCNC(=O)CCC4=[N+]5C(=Cc6ccc(-c7ccc[nH]7)n6[B-]5(F)F)C=C4)nn3)[C@@H](O)[C@H](O)[C@H]2O)cc1
The protocol: as §1
as §1, with “Comparative In-vitro” for “In-vitro”, “substrate 3 and 9b.” for “substrate 1.”, “of substrates 3 and 9b” for “of substrate 1”, “were 0.156, 0.313, 0.625, 1.25, 2.5, 5, 10,” for “were 0.39, 0.78, 1.56, 3.13 6.25, 12.5, 25”, “and 20” for “and 50”, “using TAMRA and BODIPY-576” for “using BODIPY® Fl-acid”

Substrate in data set [3]: COc1cc(/N=N/c2ccc([N+](=O)[O-])cc2)c(OC)cc1/N=N/c1ccc(N(C)CCCC(=O)NCCc2ccc(O[C@@H]3O[C@H](COCCCCn4cc(CNC(=O)[C@H](CCCCN(C)C)NC(=O)c5ccc(-c6c7ccc(=[N+](C)C)cc-7oc7cc(N(C)C)ccc67)c(C(=O)O)c5)nn4)[C@@H](O)[C@H](O)[C@H]3O)cc2)cc1
The protocol: as §1
as §1, with “Comparative In-vitro” for “In-vitro”, “substrate 3 and 9b.” for “substrate 1.”, “of substrates 3 and 9b” for “of substrate 1”, “were 0.156, 0.313, 0.625, 1.25, 2.5, 5, 10,” for “were 0.39, 0.78, 1.56, 3.13 6.25, 12.5, 25”, “and 20” for “and 50”, “using TAMRA and BODIPY-576” for “using BODIPY® Fl-acid”

B1: purified recombinant GCase (Homo sapiens) (protein)
chain: ARPCIPKSFGYSSVVCVCNATYCDSFDPPTFPALGTFSRYESTRSGRRMELSMGPIQANHTGTGLLLTLQPEQKFQKVKGFGGAMTDAAALNILALSPPAQNLLLKSYFSEEGIGYNIIRVPMASCDFSIRTYTYADTPDDFQLHNFSLPEEDTKLKIPLIHRALQLAQRPVSLLASPWTSPTWLKTNGAVNGKGSLKGQPGDIYHQTWARYFVKFLDAYAEHKLQFWAVTAENEPSAGLLSGYPFQCLGFTPEHQRDFIARDLGPTLANSTHHNVRLLMLDDQRLLLPHWAKVVLTDPEAAKYVHGIAVHWYLDFLAPAKATLGETHRLFPNTMLFASEACVGSKFWEQSVRLGSWDRGMQYSHSIITNLLYHVVGWTDWNLALNPEGGPNWVRNFVDSPIIVDITKDTFYKQPMFYHLGHFSKFIPEGSQRVGLVASQKNDLDAVALMHPDGSAVVVVLNRSSKDVPLTIKDPAVGFLETISPGYSIHTYLWRRQ
notes: purchased R&D Systems
With B1, the kcat/Km is 1300 ± 33 M⁻¹ s⁻¹ in data set [1], 4350 M⁻¹ s⁻¹ in data set [2] and 22670 M⁻¹ s⁻¹ in data set [3].
